Here are results for 3 compounds from paper PMC10805311, “Pseudomonas aeruginosa two-component system CprRS regulates HigBA expression and bacterial cytotoxicity in response to LL-37 stress” (PLOS Pathogens, 2024).

Numbering of substitutions follows the chain as printed.

The subject of series [1] is CprRD53A / higB DNA fragments. Description: EMSA, CprRD53A binding to higB promoter DNA. Also on record: species or system P. aeruginosa. The settings on record: 4°C 30 min. As for the experimental part: (§1) The gene promoters were obtained by PCR. The CprR and DNA fragment were mixed in different ratios (total 10 μL buffer, 25 mM Tris–HCl pH 7.5, 150 mM NaCl, 1 mM MgCl2, 2 mM KCl) and incubated at 4°C for 30 min, then the samples were analyzed by 8% polyacrylamide gel electrophoresis in 0.5 × TBE (Tris/boric acid/EDTA) buffer at 130 V for 120 min. The bands were staining with EB and visualized through BioRad imager.
Background: In EMSA bound probe runs differently from free probe, usually more slowly.

In series [2] the test system is CprR / higB DNA fragments. Description: EMSA, CprR binding to higB promoter DNA. Also on record: species or system P. aeruginosa. To be noted: 4°C 30 min. The method, then: as §1
Series [3] relates to T1, CprR W180A W181A (Pseudomonas aeruginosa), ORF:b369b159.
T1 sequence: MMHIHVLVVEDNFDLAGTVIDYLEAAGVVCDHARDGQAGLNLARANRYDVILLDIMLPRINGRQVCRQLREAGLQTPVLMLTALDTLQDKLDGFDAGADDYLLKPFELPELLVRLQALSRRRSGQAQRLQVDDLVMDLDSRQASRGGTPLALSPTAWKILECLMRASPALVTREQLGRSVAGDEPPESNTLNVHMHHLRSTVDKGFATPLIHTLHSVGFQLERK
Nature of the series: EMSA.

Series [4] relates to T2, CprR S187A S188A (Pseudomonas aeruginosa), ORF:b369b159.
T2 sequence: T1 sequence with A181W, S188A
Description: EMSA.

In series [5] the test system is T3, CprR R198A R199A (Pseudomonas aeruginosa), ORF:b369b159.
T3 sequence: T1 sequence with A181W, R199A
Description: EMSA.

Series [6] relates to T4, CprR V192A V193A (Pseudomonas aeruginosa), ORF:b369b159.
T4 sequence: T1 sequence with A181W, V193A
Nature of the series: EMSA.

Series [7] relates to T5, CprR (Pseudomonas aeruginosa (PAO1 or PA14; strain of cloned gene not stated)), ORF:b369b159.
T5 sequence: T1 sequence with A181W
Nature of the series: EMSA.

The test system of series [8] is T6, CprR N188A N189A (Pseudomonas aeruginosa), ORF:b369b159.
T6 sequence: T1 sequence with A181W, N189A
Nature of the series: EMSA.

In series [9] the test system is T7, CprR H214A H215A (Pseudomonas aeruginosa), ORF:b369b159.
T7 sequence: T1 sequence with A181W, H215A
Nature of the series: EMSA.

Series [10] has as its system biofilms of uropathogenic E. coli. To be noted: cited from earlier work. The source says: In the field of microbiology and immunology, the interaction between host antimicrobial peptides and pathogenic bacteria has been a subject of extensive research. The success of bacterial infections depends on a delicate balance of signals exchanged between microbes and hosts. Cationic antimicrobial peptides, including defensins such as α-defensins, β-defensins, and cathelicidin LL-37, are crucial components of innate host defense against bacterial infections. Numerous studies have shown that LL-37 acts as a shield between the host and the external environment, preventing bact ...

For `CC(=O)OP(=O)(O)O` [acetyl phosphate (ACP), acetyl phosphate], the “effect of acetyl phosphate on DNA binding of the D53A mutant” value in series [1] is given as “unable to exhibit this enhanced binding”. For the same compound, the “effect of acetyl phosphate on DNA binding of CprR” value is “enhanced the binding of CprR to its target higB DNA fragments” in series [2] and “enhanced the DNA-binding ability of CprR” in series [2] (listed as AcP).

As for “CTGGTCGAGTCGATGATGGTGGCCGGGCGCTGAGGCCGGGTTTCCCTCTATAAAACGCCAGCGCTCGTCGCTGGCGTTTTCGTTTCCGCCTGTTCAATTGTCCGCCTCTATGGGGACCATGCTTGTCTTTTGCCAAGAAGAAAACAATAATCAATCTCATTATCGTCTGGTGAGGTTGCC (double strand) [higB promoter (PhigB)]”, the binding entry in series [3] is “binds more weakly”; in series [4], “binds more weakly”; in [5], “binds more weakly”; in series [6], “binds more weakly”; in [7], “binds”; in [8], “binds more weakly”. In addition, the binding entry in series [9] was “binds more weakly”.

In the case of Cecropin A, the biofilm disruption entry in series [10] is given as “disrupt biofilms of uropathogenic E. coli”.
